Three molecules from paper PMC4701713, “DNA Entry into and Exit out of the Cohesin Ring by an Interlocking Gate Mechanism” (Cell, 2015) can be followed below.

B1: Fission-yeast Pds5 (natural protein, fission yeast, UniProt Q9HFF5 1-1205, looked up)
chain: MIKLQFQRNIVPTHDNPLTTSEILKRLRDLLGELTSLSQDTIDRDSVLPVARSLVNNNLLHHKDKGIRSYTLCCIVELLRLCAPDAPFTLSQLEDIFQVILKILSGLMNQESTYYPQIYEILESLSNVKSAVLIVDLPNAEEFLVNIFRLFFDLARKGTTKNVEFYMLDIINQLINEINTIPAAALNILFAQLISGKGVRQTIGSSDSTNHGPAFQLARNIFHDSADRLQRYVCQYFSDIIFDSRDSLSDSMTTPEFIFSHNLVLQLWKYAPTTLLNIIPQFENELQAEQTSVRLVAIETVGLMLQDNAIWSDYPRVWSAFCGRLNDKSVACRIKCIEVASNALQNSLATSEIIENVVQMLQSKLADTDEKVRVATLKTIEQLTFETFKMQFSVQALKLMGDRLRDRKLNVRLQAIRTLSQIYNRAYQDLIDGVEYSIQMFSWIPSSLLEVFYVNDETTNAAVEICMAELVLQYLSSDTQTRLNRLFLSIKYFSEKAMRVFILLLQRQVKYSELLNYYIECCKNYNGGVMDNDEESITNKLKKVIDIISSKSSNPTLTEATFRKFAELNDRQSYKMLLQTFSIKSEYQVVLKSIKYLFKRVSETLSTASLECFRIFVYRSALFAFNKSNVHEIIQLLNEPVKYHNFLKPSEALLQHLPLIHPNIYGEVVIEVENIIVSSGIESDPKVIKALSQFSKRKKNFSIQTTTAEILRKLCLHGTQEQAKQAATIIAITETKEFKLDMITNIVENLEYNGGLPVRLMTLGQLFLYTLEEVEKVADQVTEFLVKKVIQRFPEKYDDTHNDEEWCTYEKLDNLTMCKVLAIRVLVNRLRAAAGGTEALNIGAPIIKLLKVLLMADGELSPFKNTPKISRAYLRLTASKYFLKLCSIPFYAEHIDFSSYVQISLLCQDENFDVRNLFLTKLQKQLQLKKLPISYYPLLFLTAVDPEEEIKTKASIWIRSQVAFFQKTHDFTMEYVATYLIHLLSHHPDISSIESENSLDFIAYIRFYVDTVVNSENVPIVFHLMQRIKQSYDVIEDGNNYIYVLSDMAQKILQVKSQNFGWSLTTYPKQIKLPYEILRPIPSIDEKKRIFNKIFITPKMESQIEHAIRTPVSSFAKQTTNKHANLKQKKTHSSKSDKKSSRRRKNEKRRKLNEQNPNIRNVPERSSSRFQGIRINYSEAPSSSEEISEEEEEISEEDFDEIEDL
notes: Pds5, cohesin subunit of fission yeast; Protein A was removed by protease; source: overexpressed in budding yeast, purified (IgG-agarose, Capto Q, gel filtration)

Common to all, as to settings: both partners purified
The target of experiment [1] is T1, Fission-yeast cohesin tetramer (Psm1, Psm3, Rad21 and Psc3) (fission yeast, UniProt O94383 1-1228; O42649 1-1194; P30776 1-628; O13816 1-962).
T1 construct: Psm1 (Smc1), SMC subunit of fission-yeast cohesin; Psm3 (Smc3), SMC subunit of fission-yeast cohesin; Rad21, kleisin subunit of fission-yeast cohesin; Psc3 (Scc3), subunit of fission-yeast cohesin; also called "4"; source: recombinant, purified as described (Murayama and Uhlmann, 2014); not shown: Pk, C-terminal, kept; copies: + + +
T1 sequence (O94383 whole entry, chain 1 of 3): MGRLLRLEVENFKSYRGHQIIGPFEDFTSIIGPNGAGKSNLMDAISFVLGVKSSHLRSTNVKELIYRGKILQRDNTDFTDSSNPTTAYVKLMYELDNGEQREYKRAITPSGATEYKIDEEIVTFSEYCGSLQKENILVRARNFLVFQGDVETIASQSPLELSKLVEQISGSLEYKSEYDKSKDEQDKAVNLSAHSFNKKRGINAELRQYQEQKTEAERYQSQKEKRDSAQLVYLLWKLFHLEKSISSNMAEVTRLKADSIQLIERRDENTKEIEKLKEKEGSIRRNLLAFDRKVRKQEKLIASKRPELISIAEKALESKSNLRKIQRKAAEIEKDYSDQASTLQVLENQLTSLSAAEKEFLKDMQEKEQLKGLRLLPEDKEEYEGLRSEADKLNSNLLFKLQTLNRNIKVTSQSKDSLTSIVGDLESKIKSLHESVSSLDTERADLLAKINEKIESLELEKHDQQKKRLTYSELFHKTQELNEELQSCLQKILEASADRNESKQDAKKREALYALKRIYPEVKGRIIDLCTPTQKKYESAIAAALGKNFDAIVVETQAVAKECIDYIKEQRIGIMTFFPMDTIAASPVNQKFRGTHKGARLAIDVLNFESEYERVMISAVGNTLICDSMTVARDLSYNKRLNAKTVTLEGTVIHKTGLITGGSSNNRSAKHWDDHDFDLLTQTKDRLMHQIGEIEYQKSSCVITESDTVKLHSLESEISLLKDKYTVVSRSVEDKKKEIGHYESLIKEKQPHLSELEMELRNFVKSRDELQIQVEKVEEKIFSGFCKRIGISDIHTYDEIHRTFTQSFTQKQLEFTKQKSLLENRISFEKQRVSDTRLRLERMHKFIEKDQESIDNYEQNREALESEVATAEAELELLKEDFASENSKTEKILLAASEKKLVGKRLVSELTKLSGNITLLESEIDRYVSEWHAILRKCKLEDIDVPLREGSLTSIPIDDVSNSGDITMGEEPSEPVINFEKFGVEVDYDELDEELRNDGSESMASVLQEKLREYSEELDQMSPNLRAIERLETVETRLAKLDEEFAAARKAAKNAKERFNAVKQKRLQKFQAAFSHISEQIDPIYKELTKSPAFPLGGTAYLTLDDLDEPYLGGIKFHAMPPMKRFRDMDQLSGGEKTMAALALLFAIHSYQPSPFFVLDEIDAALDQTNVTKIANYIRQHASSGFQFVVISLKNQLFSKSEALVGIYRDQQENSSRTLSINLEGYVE
T1 sequence (O42649 whole entry, chain 2 of 3): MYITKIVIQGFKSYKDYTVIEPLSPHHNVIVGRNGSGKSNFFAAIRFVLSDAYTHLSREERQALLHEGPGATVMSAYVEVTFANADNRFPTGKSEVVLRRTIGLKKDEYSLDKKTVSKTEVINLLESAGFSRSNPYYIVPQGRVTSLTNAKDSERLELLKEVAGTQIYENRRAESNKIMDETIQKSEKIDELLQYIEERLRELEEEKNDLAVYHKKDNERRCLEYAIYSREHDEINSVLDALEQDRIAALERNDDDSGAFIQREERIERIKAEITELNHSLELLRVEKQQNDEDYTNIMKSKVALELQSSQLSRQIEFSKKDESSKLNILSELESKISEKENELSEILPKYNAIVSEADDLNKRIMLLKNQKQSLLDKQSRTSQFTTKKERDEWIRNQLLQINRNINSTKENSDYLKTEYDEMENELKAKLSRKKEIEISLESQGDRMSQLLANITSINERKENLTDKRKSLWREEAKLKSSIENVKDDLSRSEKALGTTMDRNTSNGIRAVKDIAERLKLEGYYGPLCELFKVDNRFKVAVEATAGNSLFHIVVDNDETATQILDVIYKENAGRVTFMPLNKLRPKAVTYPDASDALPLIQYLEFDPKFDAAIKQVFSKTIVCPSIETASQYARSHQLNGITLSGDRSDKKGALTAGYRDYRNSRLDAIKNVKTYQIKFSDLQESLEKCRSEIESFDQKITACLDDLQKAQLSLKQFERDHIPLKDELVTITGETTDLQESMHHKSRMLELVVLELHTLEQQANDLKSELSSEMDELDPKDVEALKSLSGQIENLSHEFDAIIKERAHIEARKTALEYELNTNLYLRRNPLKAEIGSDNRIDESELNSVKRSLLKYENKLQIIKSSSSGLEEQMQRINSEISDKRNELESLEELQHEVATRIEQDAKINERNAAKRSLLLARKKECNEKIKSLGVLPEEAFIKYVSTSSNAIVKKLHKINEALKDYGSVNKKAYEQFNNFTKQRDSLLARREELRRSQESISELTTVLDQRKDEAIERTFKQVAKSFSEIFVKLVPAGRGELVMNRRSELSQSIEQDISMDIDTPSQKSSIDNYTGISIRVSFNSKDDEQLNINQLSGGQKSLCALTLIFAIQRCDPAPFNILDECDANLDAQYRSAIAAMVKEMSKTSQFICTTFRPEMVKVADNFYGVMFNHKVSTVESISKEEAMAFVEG
T1 sequence (P30776 whole entry, chain 3 of 3): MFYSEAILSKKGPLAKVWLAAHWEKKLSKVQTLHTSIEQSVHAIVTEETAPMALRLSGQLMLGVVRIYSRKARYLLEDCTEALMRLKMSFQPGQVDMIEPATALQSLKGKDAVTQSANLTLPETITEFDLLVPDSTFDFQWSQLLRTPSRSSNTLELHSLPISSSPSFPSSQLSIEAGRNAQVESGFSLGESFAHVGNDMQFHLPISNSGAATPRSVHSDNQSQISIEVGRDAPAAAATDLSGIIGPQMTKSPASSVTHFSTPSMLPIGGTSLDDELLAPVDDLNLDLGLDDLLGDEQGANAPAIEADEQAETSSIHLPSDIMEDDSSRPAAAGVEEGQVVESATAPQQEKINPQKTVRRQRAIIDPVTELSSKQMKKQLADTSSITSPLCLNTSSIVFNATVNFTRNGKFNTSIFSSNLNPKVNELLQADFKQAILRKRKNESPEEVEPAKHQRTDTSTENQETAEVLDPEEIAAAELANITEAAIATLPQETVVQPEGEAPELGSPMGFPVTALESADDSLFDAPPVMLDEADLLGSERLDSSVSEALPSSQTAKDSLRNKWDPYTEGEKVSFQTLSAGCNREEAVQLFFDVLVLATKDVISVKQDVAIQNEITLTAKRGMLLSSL
Nature of the experiment: co-IP; recombinant cohesin tetramer or trimer immunoprecipitated via Rad21-HA with Pds5 and Wapl both added; bound proteins by western blotting.

Experiment [2] deals with T2, Fission-yeast cohesin trimer (Psm1, Psm3 and Rad21) (fission yeast, UniProt O94383 1-1228; O42649 1-1194; P30776 1-628).
T2 construct: Psm1 (Smc1), SMC subunit of fission-yeast cohesin; Psm3 (Smc3), SMC subunit of fission-yeast cohesin; Rad21, kleisin subunit of fission-yeast cohesin; Lacks Psc3; source: recombinant, purified (Murayama and Uhlmann, 2014); copies: + +
T2 sequence (O94383 whole entry, chain 1 of 3): as the sequence (O94383 whole entry, chain 1 of 3) above
T2 sequence (O42649 whole entry, chain 2 of 3): as the sequence (O42649 whole entry, chain 2 of 3) above
T2 sequence (P30776 whole entry, chain 3 of 3): as the sequence (P30776 whole entry, chain 3 of 3) above
The experiment is described as above.

The experiment “Fission-yeast Pds5” concerns the target B1. Nature of the experiment: SEC; purified Pds5 and Wapl mixed in equimolar amounts and analysed by gel filtration; fractions by SDS-PAGE and silver staining.
The target of the next experiment is T3, Mis4-Ssl3 cohesin loader (fission yeast, UniProt Q09725 1-1587; O94459 1-559).
T3 construct: Mis4, subunit of the fission-yeast cohesin loader; Ssl3, subunit of the fission-yeast cohesin loader; also called MS; source: prepared and purified as described (Murayama and Uhlmann, 2014)
Nature of the experiment: co-IP; Psc3 immunoprecipitated; co-precipitation of the Psm1-Psm3 hinge and of the cohesin loader analysed.

On to B1, for which the binding result in experiment [1] and in experiment [2] was “binds” each time.

B2: Fission-yeast Wapl (natural protein, fission yeast, UniProt O94364 1-602, looked up)
chain: MKRGKCKEKDNGLKRISSESEVWNFLDVTVSELNKQKRSPGQTVSKRLHKKQRVVSNPDLSLPSSPVKQILRNGLQNSKYGSHKTGLERSASCSSIDASANHSSTTYREQRSYLMEEGLDTQPIVPREVSSGRELDSTNHTIGTERAFLIEEDVSEDDEIQMKSIHELRFAGEQQRIVDEIEYLVDGVTFSGNSSASRYLSLIGIAEKMFDNSFRLCLKSIRDVFLRIFEEIDPKDTLHTFLQIYIFATMANEMDCMSSLLDAYSNNVKLLLQTAITLEPQVPVSILAKSLPKSVKGAVQEFVIKAELTFSFSNESLASSDSISLAAIALMKTSSGVFAESELFTELINLLIEKSYPILKENDGSNNFLLHALCSSLEKFTDFQGSEKIQKVSQILSSKLQILIDEHNETNSPKIDDTVVHACSEKLLRTLIQTVNSNSDHALAVSKSEVPLFAYKILQKFSNFSSDDETTRELIILILGLLLGLVEESHEFIQTITHVEVSFGASALDVLISFYQKNESIVEISGYVVMILSHCFLNDPKAFAQLKPLISQFYESLHKFKNFHLKLKEELMMMGSNGLAIVSIIDELHKSLQDYLRSDLVK
notes: Wapl, cohesin subunit of fission yeast; GST was removed by protease; source: E. coli, purified (glutathione sepharose, heparin chromatography)
Regarding B2, the binding result (in the experiment with Fission-yeast Pds5; in experiment [1]; in experiment [2]) was “binds” throughout.

B3: Fission-yeast Psc3 (natural protein, fission yeast, UniProt O13816 1-962, looked up)
chain: MSESVTTGSDDDGGDRESSPVMLSQSFDPMSSSSNSSSEENSDDDYEKTISSKKRHPRPNSKGVNVKRSRRNAIVEEDPQEEIFNNLFAFLLDQKVDTMDIAVSWFADYAKDNQSALANLINFILKCCGCNRAINVFDVQDQDSASATLSQIQLSVERTSTRDYPLNSKNLKFRNFRKRLTGLLSNFVSQLSIRNYLYNSTVFEDIMSWVVAMSSSTMRPIRHTATVFCLNIMTFLCEKSKELLNEHAIATKQLEKEEKRSRVNRNRINELNNSLGEIVKQQDTLTTYLNDYFDSVFVHRYRDVEPKIRVDCLQELGVWINTVPSIFFSGSYLRYLGWMLSDINTTVRLTVVKVLRKFFETDSFIGGLRHFSSRFKERILEMSCVDADIGVRVASIRLCNAMRTCGFLENSEILKVLKLILDINPRVQREAVLFLCKVVDESVNEKIDLWGEEDYILKAFSQTSLTTFSVHWIKFSQMCKLLEEVRLSYQSSFDYDTLLRIFQKNGNFITPITQALLNACEIDSIYQSWEDISNFVLFDNYTSTLKDPIDSILSFCKLNDFQESILLQLLSASIQTVCNNNFITPKTVHNKQAAETTNDQNKDKDLLYLNLLPYINSITERNSASPTLLHDSLRLLFSMDLTEMTDPQLSRHFELLINNLKKFFLTNNDLQIIQGCTILFLRLDSIPALKEDLKLLVTDICDQTVTEFLKNFGSFNIQDAVITKDEFVIFEACLTRIEGCTSLKDFSDYPEFDIIYERLVSLLSRVPNSYEDTLKFSAINTLQSLLFWFFLRKDNPADEEKKKDDETKVFNCLINIMNNDSSKILQLQAARTFLETVIMKEGVKASHYNDDNRVSEEHNFLKPQFLDALLKILEGWLYTYAKVGQFPFKRLTQASSPHTQISLDKNPLNRRLLEHVCCDLTSKLLIVVSLSNTITPEFSQQFCELRGHYGPKLSAIVDEFLN
notes: Psc3 (Scc3), subunit of fission-yeast cohesin, as a separate protein; source: prepared and purified as described (Murayama and Uhlmann, 2014)
Regarding B3, the binding result with Mis4-Ssl3 cohesin loader is listed as “binds”.
